The chains are these.
B1: Envelope small membrane protein (Human SARS coronavirus), P59637 (parent)
chain: MYSFVSEETGTLIVNSVLLFLAFVVFLLVTLAILTALRLCAYCCNIVNVSLVKPTVYVYSRVKNLNSSEGVPDLLV

Here are results for two variants from IntAct's records for PubMed 25122212.

The first experiment covers variants of B1. The note with it: with SDCBP.
For the variant E69A;V71A;D73A;L75A, the “effect of a mutation on the interaction” value is reported as “with no effect”.

Variants of B1 are the subject of another experiment. The following applies: with SDCBP. This is another data set of the same source.
Consider D73G;L74G;L75G;V76G, for which the “effect of a mutation on the interaction” value is on record as “decreasing interaction strength”.
